Results on one substance are retold here after paper PMC11268888.

The target of the assay is soluble head domain of CDV-H (canine distemper virus hemagglutinin), Kyoto Biken vaccine strain, mad (canine distemper virus (Kyoto Biken vaccine strain)). In words: SEC + other: non-reducing SDS-PAGE.

One may read the stoichiometry N as a count of units in the complex or per binding partner. Take “soluble head domain of CDV-H (canine distemper virus hemagglutinin), Kyoto Biken vaccine strain, mad (domain or fragment)”: the stoichiometry N worked out at 2.
